The source of these data is doi:10.1101/2024.05.08.593097.

Where two headings read alike, the source gives them in different places.

In data set [1] the target is R358E/K361E-CCaCalpL (Candidatus Cloacimonas acidaminovorans strain Evry).
Data set [2] addresses T1, CalpL (CCaCalpL, SAVED-Lon protease) (Candidatus Cloacimonas acidaminovorans, UniProt B0VHB4 1-506).
T1 sequence: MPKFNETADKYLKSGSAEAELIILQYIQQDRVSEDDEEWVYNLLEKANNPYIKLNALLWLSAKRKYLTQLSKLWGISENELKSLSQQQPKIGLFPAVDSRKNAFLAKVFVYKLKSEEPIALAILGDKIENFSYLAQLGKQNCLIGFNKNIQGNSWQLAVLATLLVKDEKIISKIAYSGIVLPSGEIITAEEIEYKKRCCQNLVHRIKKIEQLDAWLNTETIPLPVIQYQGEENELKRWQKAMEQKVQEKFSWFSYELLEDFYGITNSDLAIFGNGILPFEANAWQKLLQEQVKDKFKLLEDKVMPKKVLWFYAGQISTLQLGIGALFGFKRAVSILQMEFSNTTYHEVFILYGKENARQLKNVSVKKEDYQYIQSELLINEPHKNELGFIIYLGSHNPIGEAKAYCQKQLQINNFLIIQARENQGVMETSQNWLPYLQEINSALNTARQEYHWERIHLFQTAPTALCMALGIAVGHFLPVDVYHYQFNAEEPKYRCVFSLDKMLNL
Briefly: cryo-EM structure.

Data set [3] has as its target T1, CalpL (CCaCalpL, SAVED-Lon protease). Put plainly: cryo-EM structure. The source holds these as a separate data set.
The target is the same in data set [4]. Briefly: cryo-EM structure. This is another data set of the same source.

In the case of R358E/K361E-CCaCalpL (enzyme), the ring nuclease activity (cA4 cleavage), reduction against wt-CCaCalpL in data set [1] is greater than 100 fold.

B1: cA4 (structured_RNA)
RNA: AAAA
modifications: cyclic tetra-adenylate, 3'-5' linked ring closed by phosphodiester
Regarding B1, in data set [2], the binding result is on record as “binds”.

B2: A4p (ssRNA)
RNA: AAAA
modifications: 3'-phosphate
Consider B2, for which the binding result in data set [3] was “binds”.

B3: A4>p (ssRNA)
RNA: AAAA
modifications: 2',3'-cyclic phosphate at 3' end
For B3, in data set [4], the binding result was “binds”.
